Tests used:
[1] = target: rabbit muscle actin (rabbit) (UniProt P68135); assay: surface plasmon resonance (BIAcore), F(ab)'2 immobilised, 0.3 µg rabbit muscle actin injected
[2] = target: rabbit muscle actin (rabbit) (UniProt P68135); assay: surface plasmon resonance (BIAcore), whole A33 immobilised, 0.3 µg rabbit muscle actin injected
[3] = target: A33 antigen on the surface of human colon cancer cells (human); assay: rosetting assay on LOVO cells
[4] = target: A33 antigen on the surface of human colon cancer cells (human); assay: rosetting assay on SW403 cells
[5] = target: A33 antigen on the surface of human colon cancer cells (human); assay: rosetting assay on LS 180 cells
[6] = target: A33 antigen on the surface of human colon cancer cells (human); assay: rosetting assay on SNC-2B cells
[7] = target: A33 antigen on the surface of human colon cancer cells (human); assay: rosetting assay on SW1222 cells
[8] = target: A33 antigen on the surface of human colon cancer cells (human); assay: rosetting assay on LS 174T cells
[9] = target: A33 antigen on the surface of human colon cancer cells (human); assay: rosetting assay on LIM 1215 cells
[10] = target: A33 antigen on the surface of human colon cancer cells (human); assay: rosetting assay on NCI-H508 cells
[11] = target: A33 antigen on the surface of human colon cancer cells (human); assay: rosetting assay on SK-CO-17 cells
[12] = target: A33 antigen on the surface of human colon cancer cells (human); assay: rosetting assay on SK-CO-19 cells
[13] = target: A33 antigen on the surface of human colon cancer cells (human); assay: rosetting assay on ASPC-1 (pancreatic) cells

F(ab)'2 fragment of A33 humanized monoclonal antibody
signal at the end of the injection pulse (RU) [1]: 4 RU

whole A33 (A33 IgG) immobilised on the biosensor surface (antibody)
signal at the end of the injection pulse (RU) [2]: 247 RU

monoclonal antibody A33 (mAb A33), murine immunoglobulin, isotype IgG2a, secreted by hybridoma ATCC No. HB 8779
Rosetting A. Titer [3]: 4096 | Rosetting A. Titer [4]: 8192 | Rosetting A. Titer [5]: 2048 | Rosetting A. Titer [6]: 4096 | Rosetting A. Titer [7]: 4096 | Rosetting A. Titer [8]: 4096 | Rosetting A. Titer [9]: 8192 | Rosetting A. Titer [10]: 4096 | Rosetting A. Titer [11]: 512 | Rosetting A. Titer [12]: 8192 | Rosetting A. Titer [13]: 8192

From patent publication US6291235
